US20250074980A1 (BRIGHAM AND WOMEN S HOSPITAL, published 2025)
Positions count from the first letter of the chain named. Numbers in names are those of the source. Blank lines part the entries; values can stand above or below the binder they belong to.

What was measured:
[1] = target: T1, CEACAM1 on transfected HeLa cells (human, UniProt P13688 35-526); experiment: flow cytometry, transfected HeLa
T1 construct: also called HeLa-CEACAM1; HeLa C1
T1 sequence: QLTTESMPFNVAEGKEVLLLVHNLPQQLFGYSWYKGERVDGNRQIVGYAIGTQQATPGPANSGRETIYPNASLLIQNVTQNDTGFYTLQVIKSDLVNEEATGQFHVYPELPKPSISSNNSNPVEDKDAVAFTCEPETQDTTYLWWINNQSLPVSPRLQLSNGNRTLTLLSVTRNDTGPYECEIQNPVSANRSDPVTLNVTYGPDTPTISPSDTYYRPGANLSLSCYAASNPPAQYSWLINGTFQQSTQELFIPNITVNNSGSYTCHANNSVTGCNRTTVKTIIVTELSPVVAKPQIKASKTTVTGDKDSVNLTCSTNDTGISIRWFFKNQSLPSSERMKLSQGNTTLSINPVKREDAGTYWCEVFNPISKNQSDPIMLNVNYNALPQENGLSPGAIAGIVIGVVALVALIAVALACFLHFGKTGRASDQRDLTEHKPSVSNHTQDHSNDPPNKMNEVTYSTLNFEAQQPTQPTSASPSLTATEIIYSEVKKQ

His-tagged CEACAM1 [2] = target: T2, His-tagged CEACAM1 (human, UniProt P13688 35-428); experiment: SPR multi-cycle, IgG captured
T2 construct: 45 kDa SPR analyte; also called CEACAM1-HIS; CEACAM1 analyte
T2 sequence: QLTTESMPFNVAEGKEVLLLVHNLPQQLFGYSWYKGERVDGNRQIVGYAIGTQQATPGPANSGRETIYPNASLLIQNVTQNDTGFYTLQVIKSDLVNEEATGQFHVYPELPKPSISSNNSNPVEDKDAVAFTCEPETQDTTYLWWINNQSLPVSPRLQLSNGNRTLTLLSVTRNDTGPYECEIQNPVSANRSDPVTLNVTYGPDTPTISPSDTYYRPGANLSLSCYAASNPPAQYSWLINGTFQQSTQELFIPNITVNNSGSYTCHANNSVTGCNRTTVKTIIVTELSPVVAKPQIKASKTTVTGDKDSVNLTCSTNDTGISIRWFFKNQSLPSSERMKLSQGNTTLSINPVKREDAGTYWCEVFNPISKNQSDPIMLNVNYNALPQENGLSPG
Experimental: As an alternative approach to assess the binding of the 36 antibody combinations and the three control antibodies to CEACAM1, a kinetic analysis was performed on a Biacore T200 (serial no. 1909913) running Biacore T200 Evaluation Software V2.0.1 (Uppsala, Sweden). All experiments were run at 25° C. with HBS-P+ running buffer (pH 7.4) (GE Healthcare, cat. no. BR100671). All kinetic experiments were performed using His-tagged CEACAM1 as the analyte. For all experiments, antibodies were immobilized onto a Series S Protein A sensor chip surface. For kinetic experiments, the amount of immobilized/captured ligand was limited to avoid mass transfer effects at the surface of the chip with the surface ideally having an analyte binding level (Rₘₐₓ) of 50-150 RUs. Using a MW of 45 kDa for the CEACAM1 analyte, 150 kDa for the antibody ligand (estimated value for IgG), 50 RU for Rmax and the stoichiometry (Sm) as 2 due to the ability of each antibody to bind 2 target molecules, a target response level of ˜75 RUs was set for capture of all the sample antibodies.
The signal from the reference channel Fc1 was subtracted from that of Fc2, Fc3 and Fc4 to correct for differences in non-specific binding to a reference surface, a global Rmax parameter was used in the 1-to-1 binding model. The relative Kp compared to […] was calculated by dividing the Kp of the humanized CEACAM antibody variants by that of the chimeric antibody VH0/Vκ0 on the same chip. A summary of the averaged relative Kp obtained for the 12 antibody combinations analyzed using multi cycle kinetics can be found in Table 5.

His-tagged CEACAM1 [3] = target: T2, His-tagged CEACAM1; experiment: SPR single-cycle, supernatant IgG captured
Summary of the method: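 Humanized, affinity-matured IgGs from crude supernatant (0.5 μg/ml in HBS-P+) captured on Protein A to ~100 RU. Single-cycle kinetics: CEACAM1 at three concentrations, 70–280 nM two-fold, 80 μl/min, 80 s association each, 150 s dissociation. Reference-channel and blank-run subtraction applied.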

relative amount of cells bound [1]: 78 | relative KD to VH0/Vκ0 (His-tagged CEACAM1 [2]): 1
B1: chimeric antibody VH0/Vκ0 (antibody, IgG4, V domains shown)
VH: EVQLVESGGDLVKPGGSLKLACAASGFIFSSHGMSWVRQTPDKRLEWVATISSGGTYTYYPDSVKGRFTISRDNDKNTLYLQMNSLKSEDTAMYYCARHDFDYDAAWFAYWGQGTLVTVSS
VL: QIVLTQSPALMSASPGVKVTMTCSANSSVSYMYWYRQKPRSSPKPWIYLTSNLASGVPARFSGSGSGTSYSLTISSMEAEDAATYYCQQWSSNPPTFGSGTKLEIK
notes: IgG4 (S241P), kappa; also called VH0/Vκ0 (control); Chimeric VH0/Vκ0

Kd (His-tagged CEACAM1 [3]): 560 nM | koff (His-tagged CEACAM1 [3]): 0.053 s⁻¹ | kon (His-tagged CEACAM1 [3]): 94000 M⁻¹ s⁻¹ | relative KD to parent (His-tagged CEACAM1 [3]): 1
B2: VH1/Vκ8 S29A (antibody, IgG4, V domains shown)
VH: B1 VH with V5L, D10G, K13Q, K19R, A21S, T40A, D42G, R44G, D75S, S88A
VL: EIVLTQSPATLSLSPGERATLSCRANSAVSYMYWYQQKPGQAPRPWIYLTSNRATGVPARFSGSGSGTDYTLTISSLEPEDFAVYYCQQWSSNPPTFGQGTKLEIK
notes: IgG4 (S241P), kappa; also called Parent; Parent (VH1/Vκ8 S29A)
